Experimental data from patent publication US8962263B2, “Methods and compositions for detecting the activation state of multiple proteins in single cells” (The Board of Trustees of the Leland Stanford Junior …, priority 2001, dated 2015).

B1: ICAM-1: recombinant human ICAM-1-FC, soluble LFA-1 ligand (protein)
chain: QTSVSPSKVILPRGGSVLVTCSTSCDQPKLLGIETPLPKKELLLPGNNRKVYELSNVQEDSQPMCYSNCPDGQSTAKTFLTVYWTPERVELAPLPSWQPVGKNLTLRCQVEGGAPRANLTVVLLRGEKELKREPAVGEPAEVTTTVLVRRDHHGANFSCRTELDLRPQGLELFENTSAPYQLQTFVLPATPPQLVSPRVLEVDTQGTVVCSLDGLFPVSEAQVHLALGDQRLNPTVTYGNDSFSAKASVSVTAEDEGTQRLTCAVILGNQSQETLQTVTIYSFPAPNVILTKPEVSEGTEVTVKCEAHPRAKVTLNGVPAQPLGPRAQLLLKATPEDNGRSFSCSATLEVAGQLIHKNQTRELRVLYGPRLDERDCPGNWTWPENSQQTPMCQAWGNPLPELKCLKDGTFPLPIGESVTVTRDLEGTYLCRARSTQGEVTRKVTVNVLSPRYE
modifications: left off: a dimerising Fc or GST
notes: recombinant human ICAM-1-FC, soluble LFA-1 ligand
B2: ICAM-3: recombinant human ICAM3-FC, soluble LFA-1 ligand (protein)
chain: QEFLLRVEPQNPVLSAGGSLFVNCSTDCPSSEKIALETSLSKELVASGMGWAAFNLSNVTGNSRILCSVYCNGSQITGSSNITVYRLPERVELAPLPPWQPVGQNFTLRCQVEDGSPRTSLTVVLLRWEEELSRQPAVEEPAEVTATVLASRDDHGAPFSCRTELDMQPQGLGLFVNTSAPRQLRTFVLPVTPPRLVAPRFLEVETSWPVDCTLDGLFPASEAQVYLALGDQMLNATVMNHGDTLTATATATARADQEGAREIVCNVTLGGERREARENLTVFSFLGPIVNLSEPTAHEGSTVTVSCMAGARVQVTLDGVPAAAPGQPAQLQLNATESDDGRSFFCSATLEVDGEFLHRNSSVQLRVLYGPKIDRATCPQHLKWKDKTRHVLQCQARGNPYPELRCLKEGSSREVPVGIPFFVNVTHNGTYQCQASSSRGKYTLVVVMDIEAGSSH
modifications: left off: a dimerising Fc or GST
notes: recombinant human ICAM3-FC, soluble LFA-1 ligand

Tests used:
Type in all cases: cell-based
Syk = test: sICAM-2 induced Syk phosphorylation (phospho-tyrosine based ELISA, chemical genetic approach); details: sICAM-2 stimulus
From the text: (§1) E) depicts that LFA-1, induced phosphorylation of Pyk2, and Syk is dependent on PKC. We screened for the inhibition of sICAM-2, induced Pyk2, and Syk phosphorylation by chemical inhibitors to tyrosine kinases using a phospho-tyrosine based ELISA. Pyk2, phosphorylation was abrogated in the presence of PKC inhibitors bisindolymaleimide II (BIM II) and staurosporine (STP), in addition to tyrphostin A9, a specific Pyk2, inhibitor. a Pyk2, phosphorylation was also affected by inhibitors of phospholipase Cg (neomycin), inhibitors of Syk (piceatannol), and PKC inhibitor BIM I. Syk phosphorylation was completely abolished by inhibition of Pyk2, PLCg1, and strongly affected by PKC inhibitors. Thus, both Pyk2, and Syk phosphorylations were dependent on PKC activity, while Syk phosphorylation was additionally dependent on PLCg1, and Pyk2, activity. It was not possible to assess specific PKC isozymes by this method.
A chemical genetic approach was undertaken to determine the hierarchy of PKC, Pyk2, PLCg1, and Syk activities in response to sICAM-2, stimulus by verifying phosphorylation status of each kinase in the presence of respective chemical inhibitors. Inhibition of PKC with BIM II abrogated phosphorylation of Pyk2, PLCg1, and Syk. Inhibition of PLCg1, by neomycin abrogated phosphorylation of Syk, with no inhibition observed for Pyk2. […]

Pyk2 = test: sICAM-2 induced Pyk2 phosphorylation (phospho-tyrosine based ELISA, chemical genetic approach)
From the text: as §1
A chemical genetic approach was undertaken to determine the hierarchy of PKC, Pyk2, PLCg1, and Syk activities in response to sICAM-2, stimulus by verifying phosphorylation status of each kinase in the presence of respective chemical inhibitors. Inhibition of PKC with BIM II abrogated phosphorylation of Pyk2, PLCg1, and Syk. Inhibition of PLCg1, by neomycin abrogated phosphorylation of Syk, with no inhibition observed for Pyk2. […] Thus, the upstream signaling events from LFA-1, to Raf-1, appear to involve PKC/Pyk2/PLCg1/Syk. […] We are currently pursuing these complexes in a separate study.

HL60 cells = test: FACS based effector-target killing assay, human PBMC against CFSE labeled HL60 cells; details: 10 μg/ml, 50:1 E:T ratio, 4 hrs
Description: A) PBMC were either treated with ICAM-2, (10 μg/ml) in the presence of IL-2, for 12, hr and then incubated with CFSE labeled target HL60, cells at a 50:1, E:T ratio for 4, hrs. Remaining HL60, cells were quantified by flow cytometry. B) PBMC were treated with IL-2, (100, U/ml, 12, hrs) and treated with ICAM-1,-2, or 3, FC proteins (10, μg/ml) and used in a cytotoxicity assay as described above. Results are representative of 4, independent experiments.
(§2) Target cell lysis was measured by flow cytoemtric based detection of CFSE labeled HL60 cells. HL60 cells were labeled with 1 μg of CFSE (30 min, 37° C.). Targets were washed twice and mock treated, IL-2 activated (100 U/ml), CD3/CD28 activated (1 μg/ml), or treated with ICAM2 beads or soluble ICAM-1, -2, or 3 (10 μg/ml, 30 min, 37° C.) before plating at 10^4 target cells/well of a 96-well round bottom plate. CTLs were added at 50:1, 25:1, and 12.5:1 E:T ratio, and incubated at 37° C. for 4 hrs. Cells were then processed for multiparameter flow cytometry and intracellular perforin stain. Percent specific lysis was calculated by the following equation: % specific lysis=100-100×(experimental HL60 count/total control HL60 count). HL60 counts were detectable by the CFSE fluorescence. Percent perforin was calculated by the following equation: % perforin=100×[(experimental perforin MFI−isotype mAb MFI)/(total perforin MFI−isotype mAb MFI)]. MFI refers to mean fluorescent intensity of flow cytoemtric based intracellular detection. Cell conjugates were determined by flow cytometry as described (Morgan et al., 2001). Chemical inhibition was done at 10 μM of indicated compound (30 min, 37° C.) prior to stimulation as indicated. All experiments were performed in triplicate.

[1] = system: CD56 CD8 cytotoxic lymphocyte subsets; test: intracellular perforin and granzyme-A in CD56CD8 subsets of human PBMC by flow cytometry; details: for granzyme-A negative population: CD56+CD8high population; for changes in intracellular perforin or granzyme-A: CD56+CD8low population; for frequency of the perforin negative population: CD56+CD8med population
Description: IL-2, activated PBMC (shown in A-1 and A-3) were mock-treated (IgG) (A-2) , ICAM-1, (A2), ICAM-2, (A4), or ICAM-3, (A4) treated (10, μg/ml of FC fusion protein) for 12 hrs prior to incubation with target HL60, cells at a 50:1, E:T ratio for 4, hrs. Cells were then prepared for flow cytometry with CD8-CY5PE, CD56-PE surface stains, and perforin-CY5, and granzyme-A-FITC intracellular stains. Cells were gated for CD56^+CD8^low, CD56^+CD8^med, CD56^+, CD8^high, CD56^−, CD8^−, , CD56^−-CD8^high, populations as shown in A-1 and A-3 and population frequencies within appropriate gate. […] Results are representative of 3 independent experiments and were similar at 25:1 and 12.5:1 E:T ratios (data not shown). Manual calibration was performed. […] Perforin percentage was calculated from the following equation where MFI equals mean fluorescent intensity: 100×[(MFIexperimental−MFIisotype mAb)/(MFIcontrol−MFlisotype mAb)] Unstimulated cells were used as control.
as §2

Molecule | phosphorylation of Syk (Syk) | phosphorylation of Pyk2 (Pyk2; chemical genetic approach, sICAM-2 stimulus) | sICAM-2 induced Pyk2 phosphorylation (Pyk2; phospho-tyrosine based ELISA) | target cell lysis of HL60 cells (HL60 cells) | granzyme-A negative population [1] | changes in intracellular perforin or granzyme-A [1] | frequency of the perforin negative population [1]
neomycin | abrogated | no inhibition | affected | – | – | – | –
B1 | – | – | – | did not initiate as potent a cytotoxic cell response | 4.12% | no significant changes | 13.7%
B2 | – | – | – | did not initiate as potent a cytotoxic cell response | 3.07% | no significant changes | 19.8%
